Experimental data reported in patent publication US9273364B2 (Kyoto University, priority 2010, dated 2016).
One block for each molecule: values may come before it.

Tests used:
[1] = tested on: alternative splicing of a specific gene (GFP/RFP reporter); assay: Compound screen with GFP/RFP alternative splicing reporter; assay type: cell-based; conditions: 50 ng/mL
Excerpt: Strategy of a method for testing whether or not a compound to be tested affects an alternative splicing of a specific gene in a mammalian multicelluar organism is shown in FIG. 14.
The reporter proteins used for the method are GFP and FRP.

[2] = tested on: mouse FGFR2 exon 9 RNA probe (U1 and U2 snRNA binding); assay: In vitro exon-recognition assay, exon 9 probe; assay type: biochemical; conditions: HeLa nuclear extract, UV crosslinking
Description: (§1) A mutated DNA template of 3′ ss in intron 8 and 5′ ss in intron 9 was prepared from mutated reporter vectors as shown in FIG. 3A. The RNA substrates were labeled with ^32P by in vitro T7 transcription. In vitro splicing reaction and UV cross linking were performed under the conditions described by Sawa [Sawa H, Shimura Y (1992) Genes Dev 6: 244-254.]. To identify the shifted bands by UV cross linking, pre-heated cDNA oligo (10 microgram/mL) for U1 (5′-[…]-3′/SEQ ID NO:38) or U2 (5′-[…]-3′/SEQ ID NO:39) was added to the RNAs after UV cross linking, and the U1 or U2 cDNA oligo/RNAs mixture were digested with 50 U/mL of RNase H at 30 degrees C. for 10 min. In FIG. 5C, highly purified Flag-Fox2 and Flag-ESRP1 were added to RNAs and incubated at room temperature for 5 min before splicing reaction to examine their inhibitory or activating effects on exon recognition of U1 snRNA or U2 snRNA. After these reactions, RNAs were subjected to denaturing PAGE analysis and autoradiography.
(§2) Next, the present inventors tested whether Fox and/or ESRP cause switching from exon 9 to exon 8 through interruption of exon 9 recognition. The present inventors examined this under the in vitro splicing conditions using ^32P-labeled RNA probe of exon 9 with introns containing UGCAUG and ISE/ISS-3 sites (FIG. 10C, top panel) and the exon 8 RNA probe of same stretches. […]

[3] = tested on: mouse FGFR2 exon 8 RNA probe (U1 snRNA binding); assay: In vitro exon-recognition assay, exon 8 probe; assay type: biochemical; conditions: HeLa nuclear extract, UV crosslinking
Description: as §1, §2

Number of cells [1]: 250
Molecule: CN(C)CCOc1ccc(/C(=C(/CCCl)c2ccccc2)c2ccccc2)cc1 (racemic) [Toremifene]

shifted bands by U1 and U2 snRNA [2]: decreased
suppressive or activating effect on exon recognition [3]: not obvious
B1: Fox2 protein: highly purified recombinant Flag-Fox2 added to RNAs before splicing reaction (protein, UniProt O43251 1-390, looked up)
RNA binding protein fox-1 …: MQNEPLTPGYHGFPARDSQGNQEPTTTPDAMVQPFTTIPFPPPPQNGIPTEYGVPHTQDYAGQTGEHNLTLYGSTQAHGEQSSNSPSTQNGSLTTEGGAQTDGQQSQTQSSENSESKSTPKRLHVSNIPFRFRDPDLRQMFGQFGKILDVEIIFNERGSKGFGFVTFENSADADRAREKLHGTVVEGRKIEVNNATARVMTNKKMVTPYANGWKLSPVVGAVYGPELYAASSFQADVSLGNDAAVPLSGRGGINTYIPLISLPLVPGFPYPTAATTAAAFRGAHLRGRGRTVYGAVRAVPPTAIPAYPGVVYQDGFYGADLYGGYAAYRYAQPATATAATAAAAAAAAYSDGYGRVYTADPYHALAPAASYGVGAVASLYRGGYSRFAPY
modifications: Flag tag

shifted bands by U1 and U2 snRNA [2]: decreased
suppressive or activating effect on exon recognition [3]: not obvious
B2: ESRP1 protein: highly purified recombinant Flag-ESRP1 added to RNAs before splicing reaction (protein, UniProt Q6NXG1 1-681, looked up)
Epithelial splicing …: MTASPDYLVVLFGITAGATGAKLGSDEKELILLFWKVVDLANKKVGQLHEVLVRPDQLELTEDCKEETKIDVESLSSASQLDQALRQFNQSVSNELNIGVGTSFCLCTDGQLHVRQILHPEASKKNVLLPECFYSFFDLRKEFKKCCPGSPDIDKLDVATMTEYLNFEKSSSVSRYGASQVEDMGNIILAMISEPYNHRFSDPERVNYKFESGTCSKMELIDDNTVVRARGLPWQSSDQDIARFFKGLNIAKGGAALCLNAQGRRNGEALVRFVSEEHRDLALQRHKHHMGTRYIEVYKATGEDFLKIAGGTSNEVAQFLSKENQVIVRMRGLPFTATAEEVVAFFGQHCPITGGKEGILFVTYPDGRPTGDAFVLFACEEYAQNALRKHKDLLGKRYIELFRSTAAEVQQVLNRFSSAPLIPLPTPPIIPVLPQQFVPPTNVRDCIRLRGLPYAATIEDILDFLGEFATDIRTHGVHMVLNHQGRPSGDAFIQMKSADRAFMAAQKCHKKNMKDRYVEVFQCSAEEMNFVLMGGTLNRNGLSPPPCKLPCLSPPSYTFPAPAAVIPTEAAIYQPSVILNPRALQPSTAYYPAGTQLFMNYTAYYPSPPGSPNSLGYFPTAANLSGVPPQPGTVVRMQGLAYNTGVKEILNFFQGYQYATEDGLIHTNDQARTLPKEWVCI
modifications: Flag tag
